{
  "source": "paper PMC4303762",
  "about": "“Identification of PLXDC1 and PLXDC2 as the transmembrane receptors for the multifunctional factor PEDF” (eLife, 2014)",
  "proteins": {"B1": {"name": "PLXDC1 in membranes of transfected HEK293 cells (copper phenanthroline crosslinking) (receptor, human, UniProt Q8IUK5 19-500, looked up)", "chain": "LSPQPGAGHDEGPGSGWAAKGTVRGWNRRARESPGHVSEPDRTQLSQDLGGGTLAMDTLPDNRTRVVEDNHSYYVSRLYGPSEPHSRELWVDVAEANRSQVKIHTILSNTHRQASRVVLSFDFPFYGHPLRQITIATGGFIFMGDVIHRMLTATQYVAPLMANFNPGYSDNSTVVYFDNGTVFVVQWDHVYLQGWEDKGSFTFQAALHHDGRIVFAYKEIPMSVPEISSSQHPVKTGLSDAFMILNPSPDVPESRRRSIFEYHRIELDPSKVTSMSAVEFTPLPTCLQHRSCDACMSSDLTFNCSWCHVLQRCSSGFDRYRQEWMDYGCAQEAEGRMCEDFQDEDHDSASPDTSFSPYDGDLTTTSSSLFIDSLTTEDDTKLNPYAGGDGLQNNLSPKTKGTPVHLGTIVGIVLAVLLVAAIILAGIYINGHPTSNAALFFIERRPHHWPAMKFRSHPDHSTYAEVEPSGHEKEGFMEAEQC", "notes": "human PLXDC1 with its cytoplasmic tail ending in the conserved cysteine; Detected by a Western blot for the receptor; also called the receptor; source: HEK293, transfected, in membrane preparation"}},
  "biological_target": "the molecule itself",
  "assay": "cross-linking; membranes of HEK293 cells transfected with the receptor, in PBS; disulfide bond formation catalysed by 0.5 mM Cu (II) phenanthroline, 5 min; non-reducing and reducing SDS-PAGE, Western blot for the receptor",
  "data": [
    {"protein": "B1", "values": [
      {"measurement": "stoichiometry N", "value": 2}
    ]}
  ]
}
